The text below walks through data of patent publication US20100247589A1.

Where no end group is shown, it is not given here. The star is where a group is joined. Biotin = O=C1N[C@H]2[C@H](CS[C@H]2CCCCC(=O)*)N1

Assay [1] concerns the target tooth pellicle (thin film derived from salivary glycoproteins, formed in a human mouth) (human). Put plainly: phage ELISA on 30 min pellicle-coated bovine enamel, anti-M13-HRP, normalized to DenP3; no-phage control 0.094.
The target is the same in assay [2]. Put plainly: ELISA, 20 uM biotinylated peptide on pellicle-coated bovine enamel, streptavidin-HRP, normalized to DenP03; no-peptide control -0.001. For orientation: An ELISA detects its analyte on a solid surface through an enzyme-linked reagent.
Assay [3] shares this target. Put plainly: phage ELISA on pellicle-coated HAP disks, anti-M13-HRP; no-phage control 0.218.
For assay [4] the target is unchanged. The assay is described as follows: phage ELISA on pellicle-coated bovine enamel, anti-M13-HRP, normalized to internal control.
For assay [5] the target is unchanged. Put plainly: ELISA titration of biotinylated peptide on pellicle-coated bovine enamel, streptavidin-alkaline phosphatase, 4-MUP fluorescence, Scatchard plot.

In assay [1], HDHLSWWGQFDRQNLL [DenP116] had an O.D.450 (normalized) of 1.05.
The molecule SFSWHRGDWELGHQSKTMGM [DenP106] returned an O.D.450 (normalized) in assay [1] of 1.52.
Take SSRPHDPNHLTHQARTIYRNANHTK(Biotin) [DenP23-A]: the O.D.450 (normalized) in assay [2] came to 0.85.
Same read-out and setting: for SSRPFDGIGLGTATRHQNRK(Biotin) [DenP12-A] the value was 0.475.
In turn, SSRPTTGSSSQADTSASMSIVPAHK(Biotin) [DenP17-A] returned an O.D.450 (normalized) in assay [2] of 0.143.
As for SSRPVEPATKNMREARSSTQMRRIK(Biotin) [DenP4-A], the O.D.450 (normalized) in assay [2] was 0.803.
The molecule EPTHPTMRAQMHQSLRSSSP [Pell 8] gave an O.D.450 in assay [3] of 0.712.
SMWHDITKRYRNPSEMVSAY [DenP107] had an O.D.450 (normalized) in assay [1] of 0.726.
In the case of SSRPIYPNESMSTSNVRGPYHPK(Biotin) [DenP22-A], the O.D.450 (normalized) in assay [2] came to 0.354.
Same read-out and setting: for SSRPGPQHVLMQDTHQGYAFDNK(Biotin) [DenP16-A] the value was 0.309.
NQQMKLVPQHWHRAQP [DenP119] returned an O.D.450 (normalized) in assay [1] of 1.05.
Regarding SSRPSEARARTFNDHTTPMPIIK(Biotin) [DenP14-A], the O.D.450 (normalized) in assay [2] was determined as 0.269.
Molecule AIEYQHSATTPWTMRTRLPP [DenP101] displayed an O.D.450 (normalized) in assay [1] of 0.467.
In assay [2], SSRPAPPTYQTASYPHNLPSKRKMK(Biotin) [DenP28-A] showed an O.D.450 (normalized) of 0.811.
Still for that read-out and setting: for SSRPDLGTFPNRTLKMAAHK(Biotin) [DenP11-A] the value was 0.454.
For the molecule WHEPHQFSGENTDYSSSMGT [DenP109], the O.D.450 (normalized) in assay [1] was 0.716.
The same measure, in the same setting: for GYGQYVSQQTWAHSNK [DenP115] the value was 0.501.
SSRPQAAQVHMMQHSRPTTK(Biotin) [DenP13-A] showed an O.D.450 (normalized) in assay [2] of 0.699.
SSRPEFPYYNDNPPNPERHTLRK(Biotin) [DenP7-A]: the O.D.450 (normalized) in assay [2] was determined as 0.356.
Still for that read-out and setting: then SSRPTYQGVPSWPAVIDDAIRRK(Biotin) [DenP19-A], with 0.712.
In assay [1], DGYKLQTSLDWQMWNP [DenP111] displayed an O.D.450 (normalized) of 1.05.
Turning to TTYHYKNIYQESYQQRNPAV [DenP3], the O.D.450 (normalized) in assay [1] was 1; in assay [4], 2.5.
GGMGALESYRQWNHLA [DenP113]: the O.D.450 (normalized) in assay [1] came out at 1.35.
In assay [2], SSRPVNPNWVETQALHQPPGNTK(Biotin) [DenP20-A] had an O.D.450 (normalized) of 0.59.
The molecule GYQPHYVDHTIGWQPMIRPN [DenP104] displayed an O.D.450 (normalized) in assay [1] of 0.79.
Still for that read-out and setting: for FPSKWYNHHRHITGHV [DenP112] the value was 0.413.
Molecule SSRPHKNENIMQYNVNDRWHITPAK(Biotin) [DenP32-A] registered an O.D.450 (normalized) in assay [2] of 1.14. In assay [5], this molecule gave an MB50 of 25 µM.
SSRPTMTNHVYNSYTEKHSSTHRSK(Biotin) [DenP2-A] gave an O.D.450 (normalized) in assay [2] of 0.273.
As to SSRPTTYHYKNIYQESYQQRNPAVK(Biotin) [DenP3-A], the O.D.450 (normalized) in assay [2] is 1. The molecule further showed an MB50 in assay [5] of 28 µM.
Molecule DPNESNYENATTVSQPTRHL [Pell 7] returned an O.D.450 in assay [3] of 0.831.
In the case of SSRPQVPDYLSPTHQKKAFLEIPTK(Biotin) [DenP29-A], in assay [2], the O.D.450 (normalized) was found to be 0.468.
In turn, GNTDTTPPNAVMEPTVQHKW [Pell 9] yielded an O.D.450 in assay [3] of 0.755.
In the case of THGNKHQSWTYPSEINHKNY [DenP108], the O.D.450 (normalized) in assay [1] was determined as 1.15.
For SSRPYLLPKDQTTAPQVTPIVQHKK(Biotin) [DenP5-A], in assay [2], the O.D.450 (normalized) worked out at 0.462.
Molecule MPGHQESIKVQNWNRV [DenP117] yielded an O.D.450 (normalized) in assay [1] of 0.433.
Turning to QFNQTSHSFMHGTSGYVPGK [DenP105], the O.D.450 (normalized) in assay [1] was 0.47.
For the molecule GVHQYSRPTVPSYLWTSGQH [DenP103], in assay [1], the O.D.450 (normalized) amounted to 0.879.
Molecule SSRPELDHDSRHYMNGLQRKVTK(Biotin) [DenP15-A] showed an O.D.450 (normalized) in assay [2] of 0.46.
For GINKGQRPPWESWHEN [DenP114], in assay [1], the O.D.450 (normalized) was found to be 0.703.
The same measure, in the same setting: for EFYPFAEVPPEKSGIGRQVF [DenP102] the value was 0.52; for NLHSPWPSHAAHHWST [DenP118], 0.641.
In the case of SSRPNGNNHTDIPNRSSYTGGSFAK(Biotin) [DenP1-A], the O.D.450 (normalized) in assay [2] came out at 0.154.
